In the supplement of paper PMC9170038:

How the values were obtained:
MS2 coat protein [1] = assay: apparent KD of MS2 coat protein, switch ON state; designed switch direction (-1 OFF switch, 1 ON switch): 1; higher = weaker reporter binding; conditions: FMN input: 0 or 200 uM; Eterna round: R93 (includes R88 designs)
Summary of the method: (§1)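 The buffer was 100 mM Tris-HCl pH 7.5 with 80 mM KCl and 4 mM MgCl2, used without or with constant ligand. In it, RNA switches transcribed on-chip from Illumina sequencing clusters were titrated with SNAP-549-labelled MS2 coat protein in twofold steps from 0.7 or 1.5 nM to 3 µM. Apparent KD for each design is the median of its normalised cluster binding-curve fits.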

MS2 coat protein [2] = assay: apparent KD of MS2 coat protein, switch OFF state (with FMN for OFF switches, without FMN for ON switches); designed switch direction (-1 OFF switch, 1 ON switch): 1; higher = weaker reporter binding; conditions: FMN input: 0 or 200 uM; Eterna round: R93 (includes R88 designs)
Summary of the method: as §1

| Sequence | apparent KD of MS2 coat protein (MS2 coat protein [1]) | apparent KD of MS2 coat protein (MS2 coat protein [2]) |
| --- | --- | --- |
| AGAAAAGAAAGUAAGGAUAUGCAUAAUAAAACAUGAGGAUCACCCAUGUUAAAAAAAAGAUCAUGGUAGAAGGUACAAAAGAAAG [SS2 M 36] | 17 nM | 12.3 nM |
| AGAAAUAAAAGACAGGAUAUCCAAAAGAAAACAUGAGGAUCACCCAUGUAAAGAAAAUAAAAAUGGGAGAAGGGUCAAAUAAAAA [Mat - Same State 2 - JL mod - D49] | 34.4 nM | 33.9 nM |
| AGAAAUAAAAGAGAGGAUAUCCAAAAGAAAACAUGAGGAUCACCCAUGUAAAAGAAAAUAAAAUGGGAGAAGGCUCACAUAAAGA [Topaz 34] | 21.1 nM | 37.4 nM |
| AGAAAUAAAAGAGAGGAUAUUCAAAAGAAAACAUGAGGAUCACCCAUGUAAAAGAAAAUAAAUGGGAAGAAGGCUCAAAAUAAAG [Modifying JL's highscorer - Moving the G segment - Variant 2] | 24.8 nM | 26.2 nM |
| AGAAAUAAAAGGGAGGAUAUUCAAAAAGGGACAUGAGGAUCACCCAUGUAAAAGAAAAUAAAAUGGGAGAAGGCUCAAAAUAAAG [80%, More Helter Skelter 2] | 1130 nM | 748 nM |
| AGAAAUAAACCUCAGGAUAUGGGUAAAUAAACAUGAGGAUCACCCAUGUAAAAGAAAAUAAAAAACCAGAAGGGAGAAAAUAAGA [Designing denovo 1] | 10.4 nM | 24.1 nM |
| AGAAGACAUGAGGAUCACCCAUGUAGGAAUAUGGGAGGAUAUACAAAGACGAAAGUCAGAGUAGAAGGCCUAGGAA [salish99-SS1-090] | 18.5 nM | 53 nM |
| AGAUCUAGAAGGUAGGAUAUGUGAAAAAAUACAUGAGGAUCACCCAUGUGAUGAAUAAAAAGAAAAUAGAAGGACCAUCUAGAUC [Cross swing 2] | 16.5 nM | 40.7 nM |
| AGGAAACAUGAGGAUCACCCAUGUAAAAAUAUGGGAGGAUAUACGAAAAAAAAAAAAAAAGUAGAAGGCCUAAAAG [Garnet 10] | 101 nM | 231 nM |
| AUAAAACAUGAGGAUCACCCAUGUAGAAAUAUGGGAGGAUAUACUAGAUCGAAAGAUCUAGUAGAAGGCCUCAAAG [JL Mod of Eli 2] | 58.8 nM | 58.9 nM |
| AUAAAACAUGAGGAUCACCCAUGUAGACAUAUGGGAGGAUAUACUAGAUCGAAAGAUCUAGUAGAAGGUCUUAAAA [JL Mod of Eli 10] | 205 nM | 183 nM |
| AUAAAACAUGAGGAUCACCCAUGUCAAGAGUAUUAAGGAUAUGAGCCAGGGAACUGGCGAUCAGAAGGUGAGACUC [Atxerexebe] | 160 nM | 46.7 nM |
| AUAAAACAUGAGGAUCACCCAUGUCCGACAAAUCAAGGAUAUGAGAGCAAAACCAGGCUGUUAGAAGGUGAAAGAA [Atlausa] | 154 nM | 154 nM |
| AUAAGAAAAACACAGGAUAUCCAAAAGAAAACAUGAGGAUCACCCAUGUAAAGAAAAUAAAAAUGGGAGAAGGGUGAAAAUAAUA [Mat - Same State 2 - JL mod - D32] | 28.1 nM | 62.2 nM |
| AUAAGACAUGAGGAUCACCCAUGUAUAAGAGCAUGAGGAUAUAUGAAAAGUAAUAGGAGGAUAGAAGGCAUGGUUG [JR_SS001_Sub1219] | 89.7 nM | 102 nM |
| AUAAUAAAAACACAGGAUAUCCAAAAGAAAACAUGAGGAUCACCCAUGUAAAGAAAAUAAAAAUGGGAGAAGGGUGAAAUAAAUA [Mat - Same State 2 - JL mod - D34] | 37.4 nM | 42.9 nM |
| AUAUAAAUAAGCUAGGAUAUACUAAAGUAAACAUGAGGAUCACCCAUGUGAAGAAAGAAACUCAUGUAGAAGGAGCAUAUAUAUA [viburnum 3] | 45.6 nM | 185 nM |
| AUAUAUAUAAGGUAGGAUAUCCAAAAGUAAACAUGAGGAUCACCCAUGUAAAGAAAGAAACAAUGGGAGAAGGACCAUAUAUAUA [77%, More Tesla, 3] | 9.5 nM | 24 nM |
| AUGAAUAGCCUCGAGGAUAUCCAGUCAUGCACAUGAGGAUCACCCAUGUAAGAGAGAGUAUAAUGGGAGAAGGCGAGUUCUCGGU [JR_SS002_Sub1705] | 50.5 nM | 72.2 nM |

| Sequence | apparent KD of MS2 coat protein (MS2 coat protein [1]) | apparent KD of MS2 coat protein (MS2 coat protein [2]) |
| --- | --- | --- |
| AUGGUCAAGUGUGAGGAUAUCCAGGCUCCCACAUGAGGAUCACCCAUGUCUUAAAGGGCGUAAAGGGAGAAGGUACGAACGCCAC [Diatenat] | 35.6 nM | 46.8 nM |
| AUGUAUAGCCUCGAGGAUAUCCUGUCAUGCACAUGAGGAUCACCCAUGUAAGAGAGAGUUUAAUGGGAGAAGGCGAGUUCUCGGU [JR_SS002_Sub1706] | 33.4 nM | 66.6 nM |
| CACAGAGUGGCGUAGGAUAUGUACAUGAGUACAUGAGGAUCACCCAUGUGGGCGUGAAAUUACGAGCAGAAGGGCGUCGCCUGUG [Edradi] | 24.4 nM | 135 nM |
| CAGCGCUGUCGAGAGGAUAUGCGGUGAAGGACAUGAGGAUCACCCAUGUAAGCGAUAGUAUUACGGUAGAAGGCUCUACAGCUGC [Isdianbia] | 41.8 nM | 114 nM |
| CCCAUACAUGAGGAUCACCCAUGUUUUAUUAACAGAGGAUAUAUAGGUGAAACAAACAACAUAGAAGGCUGCCCAA [Default title] | 34.2 nM | 53.2 nM |
| CGGAGACAUGAGGAUCACCCAUGUGAGAAGAGGCGAGGAUAUCGAAAGAAAGAAGAGAAACGAGAAGGCGCGAGGU [salish99-SS1-071] | 24.2 nM | 34.5 nM |
| CGGAGACAUGAGGAUCACCCAUGUGAGAAGAGGCGAGGAUAUCGAAAGAAAGAAGAGAAACGAGAAGGCGCGAGUU [salish99-SS1-070] | 21.5 nM | 34.5 nM |
| CGGCUACAUGAGGAUCACCCAUGUCAGCCGAGGGCAGGAUAUGCGGUUCAUUCUCAAGCAGCAGAAGGGUCAAAAG [Onmabiat] | 12.8 nM | 8.83 nM |
| CUGAGGAAGAGAGAGGAUAUCCAAAGGAAAACAUGAGGAUCACCCAUGUAAAAGGUAGGAAAUUGGGAGAAGGCUCAAGAGAGAG [salish99-ss2-068] | 22.4 nM | 34.3 nM |
| GAAAAACAUGAGGAUCACCCAUGUAGAAACAUGGGAGGAUAUACAAAGACGAAAGUCAAAGUAGAAGGCCUAAAAG [Mat - Same State 1 - Mod - D159] | 207 nM | 119 nM |
| GAAAAACAUGAGGAUCACCCAUGUAGAAAUAUGGGAGGAUAUACAAAGACGAAAGUCAAAGUAGAAGGCUCAAAAG [Starry Same State 1.2 (mat747 round 1 mod)] | 28.3 nM | 164 nM |
| GAAAAACAUGAGGAUCACCCAUGUAGAAAUAUGGGAGGAUAUACGAAGACGAAAGUCGAAGUAGAAGGCCUAAAAG [Mat - Same State 1 - Eli mod - D24] | 27 nM | 84.9 nM |
| GAAAAACAUGAGGAUCACCCAUGUGAAAAUAUGGGAGGAUAUACAAAGACGAAAGUCAAAGUAGAAGGCCUAAAAG [Mat - Same State 1 - Eli mod - D3] | 23.5 nM | 139 nM |
| GAAAAACAUGAGGAUCACCCAUGUGAAAAUAUGGGAGGAUAUACGAAGUCGAAAGUCAAAGUAGAAGGCCUAAAAG [Garnet 32] | 43.6 nM | 155 nM |
| GAAAAACAUGAGGAUCACCCAUGUGGAAAUAUGGAAGGAUAUACAAAGACGAGAGUCAAAGUAGAAGGUCUAAAAG [Mat - Same State 1 - Eli mod - D20] | 17.3 nM | 26.3 nM |
| GACAAACAUGAGGAUCACCCAUGUAGAAAUAUGGGAGGAUAUACACAGACGAAAGUCAAAGUAGAAGGCCUACAAG [77%, Mat - Mod of Eli - With 3 more C's] | 25.9 nM | 103 nM |
| GAGAGACAUGAGGAUCACCCAUGUAGGAUUAUGGGAGGAUAUACAAAGACGAGAGUCAGAGUAGAAGGCCUAGGAG [salish99-ss1-139] | 25.4 nM | 75.6 nM |
| GAGGACAUAGUACAGGAUAUAUGAAUAGUUACAUGAGGAUCACCCAUGUGCAUUAAUAUGCGAACAUAGAAGGGUGGUAGUUAUC [Mat - Same state - Malcolm Mod - D128] | 119 nM | 64.4 nM |
| GAGGACAUAGUAUAGGAUAUAUGAAUAGUUACAUGAGGAUCACCCAUGUGCAUUUAUAUGCGAACAUAGAAGGGUGGUAGUUAUC [SameState2 Malc#31] | 122 nM | 75.1 nM |
